Experimental data reported in publication PMC9891822, “Cysteine Pathogenic Variants of PMM2 Are Sensitive to Environmental Stress with Loss of Structural Stability” (Oxidative Medicine and Cellular Longevity, 2023).
Where a chain is given by its changes, count along the chain named. Numbers in names are those of the source.

B1: Phosphomannomutase2 (PMM2) wild type (enzyme, human, UniProt O15305-1 1-246, looked up)
chain: MAAPGPALCLFDVDGTLTAPRQKITKEMDDFLQKLRQKIKIGVVGGSDFEKVQEQLGNDVVEKYDYVFPENGLVAYKDGKLLCRQNIQSHLGEALIQDLINYCLSYIAKIKLPKKRGTFIEFRNGMLNVSPIGRSCSQEERIEFYELDKKENIRQKFVADLRKEFAGKGLTFSIGGQISFDVFPDGWDKRYCLRHVENDGYKTIYFFGDKTMPGGNDHEIFTDPRTMGYSVTAPEDTRRICELLFS
notes: PMM2, human, open reading frame NM_000303, primers from the start codon to the stop codon; Cloned into pET28a(+) 'containing 6x His-tag'; also called PMM2-WT; WT; source: E. coli BL21 (DE3), purified (Ni-NTA, Superdex 75)
B2: PMM2 Cys9Tyr (C9Y) variant (enzyme, human, UniProt O15305-1 1-246, looked up)
chain: B1 chain with C9Y
notes: PMM2, human, open reading frame NM_000303, with the pathogenic variant C9Y (c. G26A) found in patients; Cloned into pET28a(+) 'containing 6x His-tag'; also called PMM2-C9Y; source: E. coli BL21 (DE3), purified (Ni-NTA, Superdex 75)
B3: PMM2 Cys241Ser (C241S) variant (enzyme, human, UniProt O15305-1 1-246, looked up)
chain: B1 chain with C241S
notes: PMM2, human, open reading frame NM_000303, with the pathogenic variant C241S (c. G722C) found in patients; Cloned into pET28a(+) 'containing 6x His-tag'; also called PMM2-C241S; source: E. coli BL21 (DE3), purified (Ni-NTA, Superdex 75)

Target: the molecule itself
Experiment: SEC; Superdex 75 10/300GL on an AKTA purifier; 100 uL of 0.2 mg/mL protein injected; 0.6 mL/min; 20 mM Na2HPO4, 150 mM NaCl, 1 mM EDTA; mass estimated from the elution volume

Protein | stoichiometry N
B1 | 2
B2 | 2
B3 | 2
